Assay results from article PMC2919228 (Molecular cell, 2010).

Molecular target: Skp1-GST/Cdc4-HA (Saccharomyces cerevisiae, UniProt P52286 1-194; P07834 1-779)
Test: pull-down

Chain of Skp1-GST/Cdc4-HA (P52286 whole entry, chain 1 of 2): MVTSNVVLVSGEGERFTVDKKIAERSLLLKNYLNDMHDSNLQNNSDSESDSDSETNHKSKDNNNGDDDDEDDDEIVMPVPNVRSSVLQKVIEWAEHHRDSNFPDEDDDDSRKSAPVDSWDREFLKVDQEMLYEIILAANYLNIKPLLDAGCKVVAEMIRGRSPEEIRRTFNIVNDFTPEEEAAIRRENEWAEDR
Chain of Skp1-GST/Cdc4-HA (P07834 whole entry, chain 2 of 2): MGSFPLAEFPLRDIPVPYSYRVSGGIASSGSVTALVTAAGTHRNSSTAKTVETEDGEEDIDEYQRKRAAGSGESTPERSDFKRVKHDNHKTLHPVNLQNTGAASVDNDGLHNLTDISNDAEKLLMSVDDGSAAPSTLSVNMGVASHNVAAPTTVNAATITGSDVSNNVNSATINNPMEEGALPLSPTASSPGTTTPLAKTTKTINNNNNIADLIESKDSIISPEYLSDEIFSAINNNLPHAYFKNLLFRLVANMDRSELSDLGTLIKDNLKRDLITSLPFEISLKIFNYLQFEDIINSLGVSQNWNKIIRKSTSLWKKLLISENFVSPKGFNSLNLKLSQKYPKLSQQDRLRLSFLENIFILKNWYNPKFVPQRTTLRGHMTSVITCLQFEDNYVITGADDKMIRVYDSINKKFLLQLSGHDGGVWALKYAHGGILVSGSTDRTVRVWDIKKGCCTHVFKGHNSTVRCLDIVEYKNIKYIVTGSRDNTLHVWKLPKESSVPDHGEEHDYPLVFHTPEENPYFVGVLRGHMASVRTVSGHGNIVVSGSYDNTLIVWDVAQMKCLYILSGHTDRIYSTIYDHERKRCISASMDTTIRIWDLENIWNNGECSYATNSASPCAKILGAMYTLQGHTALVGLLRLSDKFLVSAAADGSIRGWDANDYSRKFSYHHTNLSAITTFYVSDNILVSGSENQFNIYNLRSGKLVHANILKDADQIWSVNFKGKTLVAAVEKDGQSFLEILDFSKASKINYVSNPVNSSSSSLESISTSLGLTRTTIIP

B1: Gpa1-Flag (natural protein, Saccharomyces cerevisiae, UniProt P08539 1-472, looked up)
chain: MGCTVSTQTIGDESDPFLQNKRANDVIEQSLQLEKQRDKNEIKLLLLGAGESGKSTVLKQLKLLHQGGFSHQERLQYAQVIWADAIQSMKILIIQARKLGIQLDCDDPINNKDLFACKRILLKAKALDYINASVAGGSDFLNDYVLKYSERYETRRRVQSTGRAKAAFDEDGNISNVKSDTDRDAETVTQNEDADRNNSSRINLQDICKDLNQEGDDQMFVRKTSREIQGQNRRNLIHEDIAKAIKQLWNNDKGIKQCFARSNEFQLEGSAAYYFDNIEKFASPNYVCTDEDILKGRIKTTGITETEFNIGSSKFKVLDAGGQRSERKKWIHCFEGITAVLFVLAMSEYDQMLFEDERVNRMHESIMLFDTLLNSKWFKDTPFILFLNKIDLFEEKVKSMPIRKYFPDYQGRVGDAEAGLKYFEKIFLSLNKTNKPIYVKRTCATDTQTMKFVLSAVTDLIIQQNLKKIGII
Question: Does B1 bind?
Answer: binds
